Source: the supplement of paper PMC11908140

B1: library; numbered along this chain (parent)
chain: MRKPRAAVGSGHRKQAASQEGRQKHAKNNSQAKPSACDGLARQPEEVVLQASVSSYHLFRDVAEVTAFRGSLLSWYDQEKRDLPWRRRAEDEMDLDRRAYAVWVSEVMLQQTQVATVINYYTGWMQKWPTLQDLASASLEEVNQLWAGLGYYSRGRRLQEGARKVVEELGGHMPRTAETLQQLLPGVGRYTAGAIASIAFGQATGVVDGNVARVLCRVRAIGADPSSTLVSQQLWGLAQQLVDPARPGDFNQAAMELGATVCTPQRPLCSQCPVESLCRARQRVEQEQLLASGSLSGSPDVEECAPNTGQCHLCLPPSEPWDQTLGVVNFPRKASRKPPREESSATCVLEQPGALGAQILLVQRPNSGLLAGLWEFPSVTWEPSEQLQRKALLQELQRWAGPLPATHLRHLGEVVHTFSHIKLTYQVYGLALEGQTPVTTVPPGARWLTQEEFHTAAVSTAMKKVFRVYQGQQPGTCMGSKRSQVSSPCSRKKPRMGQQVLDNFFRSHISTDAHSLNSAAQ

Variants of: B1
Assay: 8OG:A repair function score (normalized; synonymous = 0, nonsense = -1) (normalized log-likelihood score); higher = more repair activity (WT-like)
Conditions: with 8OG:A DNA repair reporter (GFP) in HEK-293 MUTYH KO cells
Procedure, shortened: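 Lentiviral MUTYH cDNA NNN codon-scan libraries in HEK-293 MUTYH knockout cells (10 pg/ml doxycycline) were co-transfected with an 8OG:A GFP repair reporter plus mCherry. At 72 h, viable mCherry+ cells were sorted into GFP+ (repair) and GFP− bins, three replicates per tile, then tile amplicons were sequenced. Per-tile Rosace fitness scores became a normalized repair function score anchored on synonymous and nonsense distributions. Synonymous medians were set to 0 and nonsense to -1; variants under 300 counts per million at the start were removed.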

Variant	8OG:A repair function score
N210Q	-0.95
I359D	-0.946
A513W	-0.0476
G412M	-0.67
P244K	0.065
H410I	-0.161
G353T	0.0569
S378L	-0.171
D322F	-0.0672
N251I	-0.889
L355I	-0.0806
P437G	0.136
K493V	-0.0351
R398I	-0.416
A245W	-0.0373
G326M	-0.634
G353K	-0.127
P44M	-0.107
S74V	-0.0223
G368F	-0.769
T116G	-0.179
T424Q	-0.355
S226M	-0.173
T440R	-0.0347

Variant	8OG:A repair function score
A194E	-0.986
G248S	-0.709
R156M	-0.207
L180P	-1.03
T476D	0.00347
T191V	-0.236
T424S	-0.192
R446W	-0.356
L313A	-0.4
A354N	-0.255
S335K	0.029
G236C	0.116
Q271N	0.0195
L169F	-0.0235
R87M	-0.0864
G236T	-0.0456
M93W	-0.00669
G434S	-0.0544
Q470F	-0.0175
L149P	-0.979
H312G	-0.0894
V65G	-0.206
L369E	-0.807
A135Q	-0.686

Variant	8OG:A repair function score
L234E	-0.954
G222F	-0.564
D322L	-0.0483
V65S	-0.0751
P225A	-0.238
H508W	0.018
G248M	-0.879
S153H	-0.0258
G412W	-0.986
R81W	-0.422
T449H	-0.131
L234D	-1.03
S136K	0.0771
V328W	-0.0588
E167K	0.0784
D133H	-0.0208
E341A	0.0808
E302W	-0.215
K493W	0.00262
A291Q	0.00288
W374F	-0.33
R340I	-0.119
G39M	0.24
T122C	-0.0157

Variant	8OG:A repair function score
L268K	0.0167
Q470L	0.00494
C272L	-1.26
T417Q	-0.0624
P474C	-0.00224
P331V	-0.568
M462V	-0.097
T228K	0.0779
I118N	-0.0549
W381A	0.0585
A67R	0.00599
S136T	0.078
T476R	-0.0215
K422M	-0.42
D502K	-0.00432
L257C	-0.298
A254W	-0.393
M478N	-0.0119
E106M	-0.994
I221G	-0.993
Q43E	0.0951
E46V	0.0528
P299H	0.0118
R157W	-0.0111

Variant	8OG:A repair function score
W381N	0.268
F453Y	-0.106
L158N	-1.2
S459V	-0.746
A291F	-0.0509
R389L	-0.04
D300W	-0.16
R156W	-0.133
H454W	0.536
T204C	0.0932
G201T	-0.23
Y190M	-0.762
L295D	-0.0433
P225W	-0.322
C269H	-0.96
M108W	-1.11
E433C	-0.179
A291Y	0.0195
D300N	-0.0764
L361I	-0.107
A135N	-0.227
A291M	-0.0586
F330C	-0.248
G188D	-1.09

Variant	8OG:A repair function score
C314W	-0.679
A519F	0.0212
N307T	-0.07
T324V	-0.0374
A456S	-0.267
S52E	-0.00064
L237R	-0.738
R482Y	0.0178
R163Y	-0.137
R86P	-0.841
V415E	-0.106
S231I	-0.0202
E287S	0.005
L215M	-0.129
V165E	-1.11
E342P	-0.298
C278H	-1.09
S54L	0.00619
V485I	0.0128
T380N	-0.171
S343C	0.00733
A238Q	-0.254
N210V	-0.927
Y425N	-0.608

Variant	8OG:A repair function score
V261L	-0.0765
E79I	0.00691
R266M	-0.0578
H57N	-0.729
E160W	0.0263
S226V	-0.247
V207L	-0.375
P34H	0.142
L169K	-0.189
L139R	-0.0247
A280L	-0.262
S55L	-0.149
E275Q	0.0396
N517E	-0.0872
P174K	-0.797
Y121R	-0.993
T308L	-0.0193
Q323T	0.0271
Q239E	-0.065
V53C	0.000965
Q78F	-0.0455
A405H	-0.489
D91C	-0.0114
S138M	-0.0953

Variant	8OG:A repair function score
M478E	0.0141
K337R	0.000179
K164T	-0.103
A519W	0.00269
T406M	-0.199
E287K	-0.0128
W85C	-1.57
E45D	0.155
W235T	-0.416
A254T	-2.58e-05
G205T	-0.773
E45L	-0.0561
E275L	-0.00764
A461D	-0.732
S197R	-1.21
W75Q	-1.46
H454R	-0.00791
W399T	-0.296
P320Q	-0.104
S483N	0.0224
T449C	-0.0406
H407R	-0.0136
M173C	-0.257
Q470S	-0.00501

Variant	8OG:A repair function score
S318Y	-0.0582
I118S	-0.0993
S292P	-0.0306
V142L	-0.245
L83E	-0.902
G353P	-0.17
G248N	-0.871
M462P	-0.578
L430T	-0.477
Y425Q	-0.626
S343R	0.0819
E167T	0.067
W103D	-1.19
H416W	-0.209
Q232G	0.139
L403D	-0.686
M173Y	-0.366
R2L	-0.084
L370F	-0.461
R336G	-0.112
V485S	0.0216
L134C	-0.394
R87T	-0.0213
D322G	-0.115

Variant	8OG:A repair function score
M462T	0.0162
K492M	0.015
P267C	-0.372
E90P	-0.164
W374V	-0.874
Y152R	-0.956
M462F	-0.254
S510C	-0.0307
R506D	0.0134
I359K	-0.27
G186Y	-0.992
G309F	0.0213
D243V	-0.767
E302Y	-0.246
Q233M	0.177
M462D	-0.463
G471Y	0.0198
A162S	-0.159
L403R	-0.392
V438D	0.0779
P365L	-0.0397
E141G	-0.256
Q386E	-0.0345
A177N	-0.0568

Variant	8OG:A repair function score
T122N	0.119
S507R	-0.00355
Q450T	0.0482
S54Q	0.00389
G479L	0.00935
V261D	-0.737
Q233A	-0.259
P225C	-0.182
A6G	0.0165
P264C	-0.102
A405S	0.0326
S510F	-0.00526
G297H	0.00021
W124L	-0.378
A371Y	-0.46
W103Q	-0.686
D243Q	-0.829
M496H	0.0281
L40H	0.00147
M108S	-1.28
H416D	-0.403
P494A	0.0124
K127P	-0.884
L387I	0.125

Variant	8OG:A repair function score
D77Y	-0.0402
L315G	-0.123
L411M	-0.193
E275P	-0.152
R86T	-0.606
R389M	-0.236
T112C	-0.907
V465I	-0.0425
A41K	-0.0537
G309Q	-0.105
P185K	-0.102
C269E	-1.16
A461T	-0.23
K127N	-0.0772
L315P	-0.0779
S459A	-0.218
S226E	0.00732
V107Y	-0.533
P244V	-0.427
Q394W	-0.387
V458E	-0.975
V62M	-0.00891
P383T	0.0211
G171R	-0.577

Variant	8OG:A repair function score
Q271L	-0.00321
P185H	-0.43
T424D	-0.256
Q521H	0.0162
R336T	-0.118
F250Q	-0.831
L134M	-0.216
A456Q	-0.514
L237M	-0.32
A253F	-1.03
A305D	-0.0865
V441Q	-0.259
A51D	0.029
Y120L	-0.231
T204G	-0.452
L139D	-0.831
E168I	-0.134
R340H	-0.253
F505G	0.00871
D224M	-0.995
P443M	0.0448
A513L	-0.00457
E350K	-0.17
K80E	-0.31

Variant	8OG:A repair function score
Q232P	-0.285
G123S	0.0793
R69D	-1.4
A334L	-0.0917
K390I	-0.265
F59K	-1.43
A63E	-0.00911
E395M	-0.253
W374S	-0.607
S487W	-0.00878
L183V	0.0213
E375Q	0.0245
R219P	-1.02
A223K	-0.118
V379Y	-0.744
P352I	-0.461
Q498K	-0.00149
E451L	-0.179
A400V	-0.246
A461E	-0.842
W85V	-1.12
S52K	0.0066
